# Measurements from IntAct's records for PubMed 31515488.
# B1: DNA mismatch repair protein Mlh1 (Homo sapiens), P40692 (parent)
# chain: MSFVAGVIRRLDETVVNRIAAGEVIQRPANAIKEMIENCLDAKSTSIQVIVKEGGLKLIQIQDNGTGIRKEDLDIVCERFTTSKLQSFEDLASISTYGFRGEALASISHVAHVTITTKTADGKCAYRASYSDGKLKAPPKPCAGNQGTQITVEDLFYNIATRRKALKNPSEEYGKILEVVGRYSVHNAGISFSVKKQGETVADVRTLPNASTVDNIRSIFGNAVSRELIEIGCEDKTLAFKMNGYISNANYSVKKCIFLLFINHRLVESTSLRKAIETVYAAYLPKNTHPFLYLSLEISPQNVDVNVHPTKHEVHFLHEESILERVQQHIESKLLGSNSSRMYFTQTLLPGLAGPSGEMVKSTTSLTSSSTSGSSDKVYAHQMVRTDSREQKLDAFLQPLSKPLSSQPQAIVTEDKTDISSGRARQQDEEMLELPAPAEVAAKNQSLEGDTTKGTSEMSEKRGPTSSNPRKRHREDSDVEMVEDDSRKEMTAACTPRRRIINLTSVLSLQEEINEQGHEVLREMLHNHSFVGCVNPQWALAQHQTKLYLLNTTKLSEELFYQILIYDFANFGVLRLSEPAPLFDLAMLALDSPESGWTEEDGPKEGLAEYIVEFLKKKAEMLADYFSLEIDEEGNLIGLPLLIDNYVPPLEGLPIFILRLATEVNWDEEKECFESLSKECAMFYSIRKQYISEESTLSGQQSEVPGSIPNSWKWTVEHIVYKALRSHILPPKHFTEDGNILQLANLPDLYKVFERC
# partner: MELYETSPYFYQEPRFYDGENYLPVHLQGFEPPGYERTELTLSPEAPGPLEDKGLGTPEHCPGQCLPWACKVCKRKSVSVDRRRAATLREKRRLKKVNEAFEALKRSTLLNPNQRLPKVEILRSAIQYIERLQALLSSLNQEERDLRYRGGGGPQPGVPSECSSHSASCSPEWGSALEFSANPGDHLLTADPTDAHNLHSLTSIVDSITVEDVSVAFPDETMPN
# B2: Nucleoporin p54 (Homo sapiens), Q7Z3B4 (parent)
# chain: MAFNFGAPSGTSGTAAATAAPAGGFGGFGTTSTTAGSAFSFSAPTNTGTTGLFGGTQNKGFGFGTGFGTTTGTSTGLGTGLGTGLGFGGFNTQQQQQTTLGGLFSQPTQAPTQSNQLINTASALSAPTLLGDERDAILAKWNQLQAFWGTGKGYFNNNIPPVEFTQENPFCRFKAVGYSCMPSNKDEDGLVVLVFNKKETEIRSQQQQLVESLHKVLGGNQTLTVNVEGTKTLPDDQTEVVIYVVERSPNGTSRRVPATTLYAHFEQANIKTQLQQLGVTLSMTRTELSPAQIKQLLQNPPAGVDPIIWEQAKVDNPDSEKLIPVPMVGFKELLRRLKVQDQMTKQHQTRLDIISEDISELQKNQTTSVAKIAQYKRKLMDLSHRTLQVLIKQEIQRKSGYAIQADEEQLRVQLDTIQGELNAPTQFKGRLNELMSQIRMQNHFGAVRSEERYYIDADLLREIKQHLKQQQEGLSHLISIIKDDLEDIKLVEHGLNETIHIRGGVFS
# partner: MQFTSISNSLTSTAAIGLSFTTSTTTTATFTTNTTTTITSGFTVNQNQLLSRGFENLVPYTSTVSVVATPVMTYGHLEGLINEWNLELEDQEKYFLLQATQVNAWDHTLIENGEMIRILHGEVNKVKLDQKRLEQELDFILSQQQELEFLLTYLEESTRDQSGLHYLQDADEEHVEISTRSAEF
# B3: Ankyrin repeat and BTB/POZ domain-containing protein 1 (Homo sapiens), Q969K4 (parent)
# chain: MDTSDLFASCRKGDVGRVRYLLEQRDVEVNVRDKWDSTPLYYACLCGHEELVLYLLANGARCEANTFDGERCLYGALSDPIRRALRDYKQVTASCRRRDYYDDFLQRLLEQGIHSDVVFVVHGKPFRVHRCVLGARSAYFANMLDTKWKGKSVVVLRHPLINPVAFGALLQYLYTGRLDIGVEHVSDCERLAKQCQLWDLLSDLEAKCEKVSEFVASKPGTCVKVLTIEPPPADPRLREDMALLADCALPPELRGDLWELPFPCPDGFNSCPDICFRVAGCSFLCHKAFFCGRSDYFRALLDDHFRESEEPATSGGPPAVTLHGISPDVFTHVLYYMYSDHTELSPEAAYDVLSVADMYLLPGLKRLCGRSLAQMLDEDTVVGVWRVAKLFRLARLEDQCTEYMAKVIEKLVEREDFVEAVKEEAAAVAARQETDSIPLVDDIRFHVASTVQTYSAIEEAQQRLRALEDLLVSIGLDC
# B4: Tuftelin-interacting protein 11 (Homo sapiens), Q9UBB9 (parent)
# chain: MSLSHLYRDGEGRIDDDDDERENFEITDWDLQNEFNPNRQRHWQTKEEATYGVWAERDSDDERPSFGGKRARDYSAPVNFISAGLKKGAAEEAELEDSDDEEKPVKQDDFPKDFGPRKLKTGGNFKPSQKGFAGGTKSFMDFGSWERHTKGIGQKLLQKMGYVPGRGLGKNAQGIINPIEAKQRKGKGAVGAYGSERTTQSMQDFPVVDSEEEAEEEFQKELSQWRKDPSGSKKKPKYSYKTVEELKAKGRISKKLTAPQKELSQVKVIDMTGREQKVYYSYSQISHKHNVPDDGLPLQSQQLPQSGKEAKAPGFALPELEHNLQLLIDLTEQEIIQNDRQLQYERDMVVNLFHELEKMTEVLDHEERVISNLSKVLEMVEECERRMQPDCSNPLTLDECARIFETLQDKYYEEYRMSDRVDLAVAIVYPLMKEYFKEWDPLKDCTYGTEIISKWKSLLENDQLLSHGGQDLSADAFHRLIWEVWMPFVRNIVTQWQPRNCDPMVDFLDSWVHIIPVWILDNILDQLIFPKLQKEVENWNPLTDTVPIHSWIHPWLPLMQARLEPLYSPIRSKLSSALQKWHPSDSSAKLILQPWKDVFTPGSWEAFMVKNIVPKLGMCLGELVINPHQQHMDAFYWVIDWEGMISVSSLVGLLEKHFFPKWLQVLCSWLSNSPNYEEITKWYLGWKSMFSDQVLAHPSVKDKFNEALDIMNRAVSSNVGAYMQPGARENIAYLTHTERRKDFQYEAMQERREAENMAQRGIGVAASSVPMNFKDLIETKAEEHNIVFMPVIGKRHEGKQLYTFGRIVIYIDRGVVFVQGEKTWVPTSLQSLIDMAK
# partner: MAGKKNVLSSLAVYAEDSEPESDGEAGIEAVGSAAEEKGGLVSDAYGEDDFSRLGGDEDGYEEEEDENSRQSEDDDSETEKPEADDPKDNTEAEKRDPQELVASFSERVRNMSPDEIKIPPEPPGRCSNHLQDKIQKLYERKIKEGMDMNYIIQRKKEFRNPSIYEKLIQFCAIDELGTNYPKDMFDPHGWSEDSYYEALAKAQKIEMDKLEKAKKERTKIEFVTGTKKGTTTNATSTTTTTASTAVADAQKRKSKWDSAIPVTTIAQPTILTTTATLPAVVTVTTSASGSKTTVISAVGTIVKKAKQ
# B5: Cysteine-rich C-terminal protein 1 (Homo sapiens), Q9UGL9 (parent)
# chain: MSSQQSAVSAKGFSKGSSQGPAPCPAPAPTPAPASSSSCCGSGRGCCGDSGCCGSSSTSCCCFPRRRRRQRSSGCCCCGGGSQRSQRSNNRSSGCCSGC
# partner: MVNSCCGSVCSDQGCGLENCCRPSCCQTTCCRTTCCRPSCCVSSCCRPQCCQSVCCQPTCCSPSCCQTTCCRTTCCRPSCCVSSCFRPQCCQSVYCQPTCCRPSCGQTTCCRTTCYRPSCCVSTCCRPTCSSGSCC
# B6: Elongin-A2 (Homo sapiens), Q8IYF1 (parent)
# chain: MAAGSTTLHAVEKLQVRLATKTEPKKLEKYLQKLSALPMTADILAETGIRKTVKRLRKHQHVGDFARDLAARWKKLVLVDRNTRPGPQDPEESASRQRFGEALQDQEKAWGFPENATAPRSPSHSPEHRRTARRTPPGQQRPHPRSHSREPRAERKCPRIAPADSGRYRASPTRTAPLRMPEGPEPAAPGKQPGRGHTHAAQGGPLLCPGCQGQPQGKAVVSHSKGHKSSRQEKRPLCAQGDWHSPTLIREKSCGACLREETPRMPSWASARDRQPSDFKTDKEGGQAGSGQRVPALEEAPDSHQKRPQHSHSNKKRPSLDGRDPGNGTHGLSPEEKEQLSNDRETQEGKPPTAHLDRTSVSSLSEVEEVDMAEEFEQPTLSCEKYLTYDQLRKQKKKTGKSATTALGDKQRKANESKGTRESWDSAKKLPPVQESQSERLQAAGADSAGPKTVPSHVFSELWDLSEAWMQANYDPLSDSDSMTSQAKPEALSSPKFREEAAFPGRRVNAKMPVYSGSRPACQLQVPTLRQQCAQVLRNNPDALSDVGEVPYWVLEPVLEGWRPDQLYRRKKDNHALVRETDELRRNHCFQDFKEEKPQENKTWREQYLRLPDAPEQRLRVMTTNIRSARGNNPNGREAKMICFKSVAKTPYDTSRRQEKSAGDADPENGEIKPASKPAGSSHTPSSQSSSGGGRDSSSSILRWLPEKRANPCLSSSNEHAAPAAKTRKQAAKKVAPLMAKAIRDYKRRFSRR
# partner: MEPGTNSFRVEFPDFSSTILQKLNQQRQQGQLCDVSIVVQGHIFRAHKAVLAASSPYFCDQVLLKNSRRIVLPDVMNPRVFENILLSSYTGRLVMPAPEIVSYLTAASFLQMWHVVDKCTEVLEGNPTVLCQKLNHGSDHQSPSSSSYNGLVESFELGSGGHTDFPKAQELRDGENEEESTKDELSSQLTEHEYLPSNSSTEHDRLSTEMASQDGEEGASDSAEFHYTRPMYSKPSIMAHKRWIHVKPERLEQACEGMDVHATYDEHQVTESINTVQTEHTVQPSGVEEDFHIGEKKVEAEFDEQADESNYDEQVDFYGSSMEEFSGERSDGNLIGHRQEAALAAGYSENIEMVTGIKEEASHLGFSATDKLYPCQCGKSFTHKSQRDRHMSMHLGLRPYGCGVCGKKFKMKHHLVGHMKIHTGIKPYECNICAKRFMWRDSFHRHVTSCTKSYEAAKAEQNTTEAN
# B7: Src kinase-associated phosphoprotein 1 (Homo sapiens), Q86WV1 (parent)
# chain: MQAAALPEEIRWLLEDAEEFLAEGLRNENLSAVARDHRDHILRGFQQIKARYYWDFQPQGGDIGQDSSDDNHSGTLGLSLTSDAPFLSDYQDEGMEDIVKGAQELDNVIKQGYLEKKSKDHSFFGSEWQKRWCVVSRGLFYYYANEKSKQPKGTFLIKGYGVRMAPHLRRDSKKESCFELTSQDRRSYEFTATSPAEARDWVDQISFLLKDLSSLTIPYEEDEEEEEKEETYDDIDGFDSPSCGSQCRPTILPGSVGIKEPTEEKEEEDIYEVLPDEEHDLEEDESGTRRKGVDYASYYQGLWDCHGDQPDELSFQRGDLIRILSKEYNMYGWWVGELNSLVGIVPKEYLTTAFEVEER
# B8: Peroxisomal biogenesis factor 19 (Homo sapiens), P40855 (parent)
# chain: MAAAEEGCSVGAEADRELEELLESALDDFDKAKPSPAPPSTTTAPDASGPQKRSPGDTAKDALFASQEKFFQELFDSELASQATAEFEKAMKELAEEEPHLVEQFQKLSEAAGRVGSDMTSQQEFTSCLKETLSGLAKNATDLQNSSMSEEELTKAMEGLGMDEGDGEGNILPIMQSIMQNLLSKDVLYPSLKEITEKYPEWLQSHRESLPPEQFEKYQEQHSVMCKICEQFEAETPTDSETTQKARFEMVLDLMQQLQDLGHPPKELAGEMPPGLNFDLDALNLSGPPGASGEQCLIM
# partner: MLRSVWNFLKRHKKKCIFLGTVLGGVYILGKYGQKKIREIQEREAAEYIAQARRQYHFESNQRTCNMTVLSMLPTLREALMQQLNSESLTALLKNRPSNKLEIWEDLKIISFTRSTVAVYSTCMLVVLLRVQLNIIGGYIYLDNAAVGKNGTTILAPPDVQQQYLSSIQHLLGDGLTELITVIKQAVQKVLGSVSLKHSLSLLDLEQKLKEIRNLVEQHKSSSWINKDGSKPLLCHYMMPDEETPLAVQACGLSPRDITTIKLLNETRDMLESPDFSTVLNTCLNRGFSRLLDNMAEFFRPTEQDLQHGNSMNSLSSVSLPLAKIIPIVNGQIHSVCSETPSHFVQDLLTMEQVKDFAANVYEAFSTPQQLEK
# Variants of: B1
# Conditions: with myog_human MYOG
row,Variant,effect of a mutation on the interaction
1,S406N,with no effect
2,V213M,with no effect
3,V326A,with no effect

# Variants of: B2
# Conditions: with NUP62CL
row,Variant,effect of a mutation on the interaction
1,R385K,with no effect
2,N250S,with no effect

# Variants of: B2
# Conditions: with NUP62CL
# Remark: another data set of the same source
row,Variant,effect of a mutation on the interaction
1,T416A,with no effect

# Variants of: B3
# Conditions: with ef1d_human EEF1D
row,Variant,effect of a mutation on the interaction
1,R386H,with no effect

# Variants of: B3
# Conditions: with ef1a2_human EEF1A2, Q05639
# ef1a2_human EEF1A2, Q05639, sequence (Q05639 whole entry): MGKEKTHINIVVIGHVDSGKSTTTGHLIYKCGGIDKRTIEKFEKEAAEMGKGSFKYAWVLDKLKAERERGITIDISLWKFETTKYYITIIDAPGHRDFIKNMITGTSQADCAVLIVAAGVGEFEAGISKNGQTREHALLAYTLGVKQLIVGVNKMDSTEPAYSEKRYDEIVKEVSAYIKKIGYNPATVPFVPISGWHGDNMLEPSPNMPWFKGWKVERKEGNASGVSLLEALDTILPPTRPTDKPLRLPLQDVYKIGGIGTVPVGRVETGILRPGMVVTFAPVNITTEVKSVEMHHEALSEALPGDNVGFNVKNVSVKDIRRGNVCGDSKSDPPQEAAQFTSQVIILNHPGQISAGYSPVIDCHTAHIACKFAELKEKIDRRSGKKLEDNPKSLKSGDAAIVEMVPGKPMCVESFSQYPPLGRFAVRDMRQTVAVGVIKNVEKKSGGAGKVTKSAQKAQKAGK
row,Variant,effect of a mutation on the interaction
1,R386H,with no effect

# Variants of: B3
# Conditions: with cul3_human CUL3, Q13618
row,Variant,effect of a mutation on the interaction
1,R386H,with no effect

# Variants of: B4
# Conditions: with SAP30BP
row,Variant,effect of a mutation on the interaction
1,R8Q,with no effect
2,S688L,with no effect

# Variants of: B5
# Conditions: with kra42_human KRTAP4-2, Q9BYR5
row,Variant,effect of a mutation on the interaction
1,G20S,with no effect

# Variants of: B6
# Conditions: with zbt43_human ZBTB43, O43298
row,Variant,effect of a mutation on the interaction
1,G505R,with no effect
2,A446T,with no effect
3,C254F,disrupting interaction strength
4,D302H,with no effect

# Variants of: B7
# Conditions: with pram_human PRAM1, Q96QH2
# pram_human PRAM1, Q96QH2, sequence (Q96QH2 whole entry): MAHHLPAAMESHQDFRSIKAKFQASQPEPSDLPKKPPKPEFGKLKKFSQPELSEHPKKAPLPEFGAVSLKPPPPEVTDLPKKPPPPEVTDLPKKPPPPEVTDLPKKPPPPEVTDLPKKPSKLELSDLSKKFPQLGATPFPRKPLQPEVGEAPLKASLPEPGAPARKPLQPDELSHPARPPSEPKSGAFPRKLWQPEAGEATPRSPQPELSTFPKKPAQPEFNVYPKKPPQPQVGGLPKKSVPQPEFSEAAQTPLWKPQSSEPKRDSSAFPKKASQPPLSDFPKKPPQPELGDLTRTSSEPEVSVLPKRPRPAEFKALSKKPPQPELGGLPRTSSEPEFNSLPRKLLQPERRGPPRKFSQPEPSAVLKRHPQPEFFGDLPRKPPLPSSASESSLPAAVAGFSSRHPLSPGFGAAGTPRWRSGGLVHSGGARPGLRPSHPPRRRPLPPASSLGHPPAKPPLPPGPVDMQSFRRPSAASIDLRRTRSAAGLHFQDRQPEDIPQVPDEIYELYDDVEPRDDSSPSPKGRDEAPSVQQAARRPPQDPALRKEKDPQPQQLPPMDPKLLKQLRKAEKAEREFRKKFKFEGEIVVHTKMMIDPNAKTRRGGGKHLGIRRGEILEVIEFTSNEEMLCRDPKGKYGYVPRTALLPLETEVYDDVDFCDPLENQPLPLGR
row,Variant,effect of a mutation on the interaction
1,G161S,with no effect

# Variants of: B7
# Conditions: with eeig1_human EEIG1, Q5T9C2
# eeig1_human EEIG1, Q5T9C2, sequence (Q5T9C2 whole entry): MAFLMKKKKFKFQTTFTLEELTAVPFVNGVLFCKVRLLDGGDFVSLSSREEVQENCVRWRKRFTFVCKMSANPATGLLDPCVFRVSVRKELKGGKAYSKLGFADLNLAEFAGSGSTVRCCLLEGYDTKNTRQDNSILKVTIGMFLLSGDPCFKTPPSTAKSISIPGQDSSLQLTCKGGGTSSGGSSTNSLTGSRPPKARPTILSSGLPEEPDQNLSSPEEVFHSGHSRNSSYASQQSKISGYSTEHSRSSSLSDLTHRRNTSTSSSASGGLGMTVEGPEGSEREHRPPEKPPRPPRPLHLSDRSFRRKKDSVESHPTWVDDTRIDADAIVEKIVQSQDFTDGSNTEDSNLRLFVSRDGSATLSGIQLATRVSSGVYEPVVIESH
row,Variant,effect of a mutation on the interaction
1,S242G,with no effect

# Variants of: B8
# Conditions: with pex3_human PEX3, P56589
row,Variant,effect of a mutation on the interaction
1,L26I,with no effect
2,L21V,with no effect
3,A85V,with no effect
4,R207G,with no effect
5,E6K,with no effect
